Results taken from patent publication US20210388087A1 (Chugai, published 2021).
Positions count from the first letter of the chain named. Names may count otherwise.

T1: Human CD3eg linker (human)
T1 construct: Single chain: epsilon and gamma subunits of human CD3 joined by a 29-mer linker, Flag-tag at the C-terminus; also called recombinant human CD3
T1 chain: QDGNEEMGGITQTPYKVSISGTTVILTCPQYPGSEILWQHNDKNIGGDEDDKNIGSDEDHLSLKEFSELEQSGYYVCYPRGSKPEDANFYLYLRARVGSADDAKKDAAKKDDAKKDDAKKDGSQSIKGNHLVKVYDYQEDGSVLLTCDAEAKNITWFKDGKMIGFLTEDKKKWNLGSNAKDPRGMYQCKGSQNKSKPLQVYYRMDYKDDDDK

B1: H183/L072 VH A54D (antibody, name in Kabat numbering, V domains shown)
VH: QVQLVESGGGLVQPGRSLRLSCAASGFTFSNAWMHWVRQAPGKGLEWVAQIKDKGNDYAAYYAPSVKGRFTISRDDSKNSIYLQMNSLKTEDTAVYYCHYVHYASASTVLPAFGVDAWGQGTTVTVSS
VL: DIVMTQSPLSLPVTPGEPASISCQASQELVHMNRNTYLHWYQQKPGQAPRLLIYKVSNRFPGVPDRFSGSGSGTDFTLKISRVEAEDVGVYYCAQGTSVPFTFGQGTKLEIK
B2: H183/L072 VH A54T (antibody, name in Kabat numbering, V domains shown)
VH: B1 VH with D57T
VL: B1 VL
B3: H183/L072 VH A56N (antibody, name in Kabat numbering, V domains shown)
VH: B1 VH with D57A, A59N
VL: B1 VL
B4: H183/L072 VH A56W (antibody, name in Kabat numbering, V domains shown)
VH: B1 VH with D57A, A59W
VL: B1 VL
B5: H183/L072 VH A56M (antibody, name in Kabat numbering, V domains shown)
VH: B1 VH with D57A, A59M
VL: B1 VL
B6: H183/L072 VH A54K (antibody, name in Kabat numbering, V domains shown)
VH: B1 VH with D57K
VL: B1 VL
B7: H183/L072 VH A54W (antibody, name in Kabat numbering, V domains shown)
VH: B1 VH with D57W
VL: B1 VL
B8: H183/L072 VH A57D (antibody, name in Kabat numbering, V domains shown)
VH: B1 VH with D57A, A60D
VL: B1 VL
B9: H183/L072 VH A57I (antibody, name in Kabat numbering, V domains shown)
VH: B1 VH with D57A, A60I
VL: B1 VL
B10: H183/L072 VH A56L (antibody, name in Kabat numbering, V domains shown)
VH: B1 VH with D57A, A59L
VL: B1 VL
B11: H183/L072 VH A56V (antibody, name in Kabat numbering, V domains shown)
VH: B1 VH with D57A, A59V
VL: B1 VL
B12: H183/L072 VH A54E (antibody, name in Kabat numbering, V domains shown)
VH: B1 VH with D57E
VL: B1 VL
B13: H183/L072 VH A56Q (antibody, name in Kabat numbering, V domains shown)
VH: B1 VH with D57A, A59Q
VL: B1 VL
B14: H183/L072 VH A54S (antibody, name in Kabat numbering, V domains shown)
VH: B1 VH with D57S
VL: B1 VL
B15: H183/L072 VH A56G (antibody, name in Kabat numbering, V domains shown)
VH: B1 VH with D57A, A59G
VL: B1 VL
B16: H183/L072 VH A54N (antibody, name in Kabat numbering, V domains shown)
VH: B1 VH with D57N
VL: B1 VL
B17: H183/L072 VH A54L (antibody, name in Kabat numbering, V domains shown)
VH: B1 VH with D57L
VL: B1 VL
B18: H183/L072 VH A54F (antibody, name in Kabat numbering, V domains shown)
VH: B1 VH with D57F
VL: B1 VL
B19: H183/L072 VH A54H (antibody, name in Kabat numbering, V domains shown)
VH: B1 VH with D57H
VL: B1 VL
B20: H183/L072 VH A56T (antibody, name in Kabat numbering, V domains shown)
VH: B1 VH with D57A, A59T
VL: B1 VL
B21: H183/L072 VH A54Y (antibody, name in Kabat numbering, V domains shown)
VH: B1 VH with D57Y
VL: B1 VL
B22: H183/L072 VH A54Q (antibody, name in Kabat numbering, V domains shown)
VH: B1 VH with D57Q
VL: B1 VL
B23: H183/L072 VH A56H (antibody, name in Kabat numbering, V domains shown)
VH: B1 VH with D57A, A59H
VL: B1 VL
B24: H183/L072 VH A56Y (antibody, name in Kabat numbering, V domains shown)
VH: B1 VH with D57A, A59Y
VL: B1 VL
B25: H183/L072 VH A54M (antibody, name in Kabat numbering, V domains shown)
VH: B1 VH with D57M
VL: B1 VL
B26: H183/L072 VH A56R (antibody, name in Kabat numbering, V domains shown)
VH: B1 VH with D57A, A59R
VL: B1 VL
B27: H183/L072 VH A57G (antibody, name in Kabat numbering, V domains shown)
VH: B1 VH with D57A, A60G
VL: B1 VL
B28: H183/L072 VH A56S (antibody, name in Kabat numbering, V domains shown)
VH: B1 VH with D57A, A59S
VL: B1 VL
B29: H183/L072 VH A56I (antibody, name in Kabat numbering, V domains shown)
VH: B1 VH with D57A, A59I
VL: B1 VL
B30: H183/L072 VH A57E (antibody, name in Kabat numbering, V domains shown)
VH: B1 VH with D57A, A60E
VL: B1 VL
B31: H183/L072 VH A54G (antibody, name in Kabat numbering, V domains shown)
VH: B1 VH with D57G
VL: B1 VL
B32: H183/L072 VH A56K (antibody, name in Kabat numbering, V domains shown)
VH: B1 VH with D57A, A59K
VL: B1 VL
B33: H183/L072 VH A57H (antibody, name in Kabat numbering, V domains shown)
VH: B1 VH with D57A, A60H
VL: B1 VL
B34: H183/L072 VH A56D (antibody, name in Kabat numbering, V domains shown)
VH: B1 VH with D57A, A59D
VL: B1 VL
B35: H183/L072 VH A56E (antibody, name in Kabat numbering, V domains shown)
VH: B1 VH with D57A, A59E
VL: B1 VL
B36: H183/L072 VH A54I (antibody, name in Kabat numbering, V domains shown)
VH: B1 VH with D57I
VL: B1 VL
B37: H183/L072 VH A56F (antibody, name in Kabat numbering, V domains shown)
VH: B1 VH with D57A, A59F
VL: B1 VL
B38: H183/L072 VH A54P (antibody, name in Kabat numbering, V domains shown)
VH: B1 VH with D57P
VL: B1 VL
B39: H183/L072 VH A56P (antibody, name in Kabat numbering, V domains shown)
VH: B1 VH with D57A, A59P
VL: B1 VL
B40: H183/L072 VH A54R (antibody, name in Kabat numbering, V domains shown)
VH: B1 VH with D57R
VL: B1 VL
B41: H183/L072 VH A57F (antibody, name in Kabat numbering, V domains shown)
VH: B1 VH with D57A, A60F
VL: B1 VL
B42: H183/L072 VH A54V (antibody, name in Kabat numbering, V domains shown)
VH: B1 VH with D57V
VL: B1 VL

Target: T1, Human CD3eg linker
Experiment: Biacore SPR, vs template H183/L072

| Binder | fold change of affinity |
| --- | --- |
| B1 | 0.9 fold |
| B2 | 0.9 fold |
| B3 | 0.9 fold |
| B4 | 0.8 fold |
| B5 | 1 fold |
| B6 | 1.1 fold |
| B7 | 1.1 fold |
| B8 | 1 fold |
| B9 | 0.6 fold |
| B10 | 0.7 fold |
| B11 | 0.7 fold |
| B12 | 1 fold |
| B13 | 1 fold |
| B14 | 1 fold |
| B15 | 0.7 fold |
| B16 | 1.1 fold |
| B17 | 1.1 fold |
| B18 | 1.2 fold |
| B19 | 1.1 fold |
| B20 | 0.7 fold |
| B21 | 1 fold |

| Binder | fold change of affinity |
| --- | --- |
| B22 | 1.1 fold |
| B23 | 0.9 fold |
| B24 | 0.7 fold |
| B25 | 1 fold |
| B26 | 1.3 fold |
| B27 | 0.7 fold |
| B28 | 0.9 fold |
| B29 | 0.6 fold |
| B30 | 1 fold |
| B31 | 1 fold |
| B32 | 1.3 fold |
| B33 | 0.9 fold |
| B34 | 0.5 fold |
| B35 | 0.6 fold |
| B36 | 0.7 fold |
| B37 | 0.6 fold |
| B38 | 0 fold |
| B39 | 0.3 fold |
| B40 | 1.1 fold |
| B41 | 0.4 fold |
| B42 | 0.7 fold |
